The test addresses TYLCV coat protein (CP) in viruliferous whiteflies (tomato yellow leaf curl virus (TYLCV) isolate SH2).

“Vitellogenin (Vg) of MEAM1 whitefly (Bta07851), endogenous (natural protein)” displayed a proportion of phase V midguts (TYLCV movement across the midgut, IFA) in Vg antibody-treated whiteflies after a 24-h AAP; control group 55% of 30%; a reduction of the disease incidence rate of tomato plants in the Vg antibody treatment against the control, 15 days (27%) and 30 days (35%) posttransmission of 35%.

These data come from publication PMC8269243.
